According to US20100040611A1 (Merck Sharp & Dohme, published 2010):
Substitutions are numbered along the chain they refer to. Where two headings read alike, the source gives them in different places.

Columns and labels:
Test in all cases: cell-based or functional assay
[1] = biological target: T1, recombinant human PCSK9, V5-, His-tagged (human, UniProt Q8NBP7 31-692, limits assumed)
[2] = biological target: T1, recombinant human PCSK9, V5-, His-tagged; remark: listed apart in the source
[3] = biological target: T1, recombinant human PCSK9, V5-, His-tagged; remark: listed apart in the source
[4] = biological target: T1, recombinant human PCSK9, V5-, His-tagged; remark: listed apart in the source
[5] = biological target: T1, recombinant human PCSK9, V5-, His-tagged; remark: listed apart in the source

T1 sequence (Q8NBP7 31-692 limits assumed): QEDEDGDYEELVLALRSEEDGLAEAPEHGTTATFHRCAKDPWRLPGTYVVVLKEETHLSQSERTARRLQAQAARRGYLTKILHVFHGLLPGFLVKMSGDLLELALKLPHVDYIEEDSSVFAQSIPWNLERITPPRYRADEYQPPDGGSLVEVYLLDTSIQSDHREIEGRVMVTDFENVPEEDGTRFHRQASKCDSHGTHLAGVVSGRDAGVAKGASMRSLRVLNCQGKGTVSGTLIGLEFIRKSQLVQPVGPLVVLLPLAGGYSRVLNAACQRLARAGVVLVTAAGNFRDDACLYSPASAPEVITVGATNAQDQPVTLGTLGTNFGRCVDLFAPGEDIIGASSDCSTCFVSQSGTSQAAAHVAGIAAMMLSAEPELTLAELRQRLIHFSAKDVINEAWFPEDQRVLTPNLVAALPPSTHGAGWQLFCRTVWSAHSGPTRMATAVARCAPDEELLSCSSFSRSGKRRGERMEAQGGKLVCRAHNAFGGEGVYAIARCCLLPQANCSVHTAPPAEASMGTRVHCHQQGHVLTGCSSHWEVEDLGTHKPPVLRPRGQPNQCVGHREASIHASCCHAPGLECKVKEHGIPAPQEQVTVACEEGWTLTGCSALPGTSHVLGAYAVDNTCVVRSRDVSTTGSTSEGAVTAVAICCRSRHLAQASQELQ

B1: 1CX1G08 (Fab, V domains shown)
VH: QVQLVESGGGLVQPGGSLRLSCAASGFTFSDYWVSWVRQAPGKGLEWVSFISYDGSSTYYADSVKGRFTISRDNSKNTLYLQMNSLRAEDTAVYYCARTYFEGVDVWGQGTLVTVSS
VL: DIELTQPPSVSVAPGQTARISCSGDNIGTYYVHWYQQKPGQAPVLVIYDDSNRPSGIPERFSGSNSGNTATLTISGTQAEDEADYYCGTWDNTSFNLVFGGGTKLTVLG
IC50: reversal of PCSK9-dependent loss of cellular diI-LDL uptake (Exopolar assay), Fab titrated against a fixed 25 µg/ml PCSK9 [1]: 0.267 µM

B2: 3CX4B08 (Fab, V domains shown)
VH: QVQLVESGGGLVQPGGSLRLSCAASGFTFSNYTMNWVRQAPGKGLEWVSFISSSSSETYYADSVKGRFTISRDNSKNTLYLQMNSLRAEDTAVYYCARGYGDMVDLWGQGTLVTVSS
VL: DIELTQPPSVSVAPGQTARISCSGDSIPTYYVAWYQQKPGQAPVLVIYSDTDRPSGIPERFSGSNSGNTATLTISGTQAEDEADYYCQSFDNHGYHVFGGGTKLTVLG
IC50: reversal of PCSK9-dependent loss of cellular diI-LDL uptake (Exopolar assay), Fab titrated against a fixed 25 µg/ml PCSK9 [2]: 0.127 µM

B3: 3BX5C01 (Fab, V domains shown)
VH: QVQLVQSGAEVKKPGESLKISCKGSGYSFTSYGISWVRQMPGKGLEWMGMIDPSDSFTTYSPSFQGQVTISADKSISTAYLQWSSLKASDTAMYYCARGYYFTYALQPMDHWGQGTLVTVSS
VL: DIELTQPPSVSVAPGQTARISCSGDNLRDYIVHWYQQKPGQAPVLVIYDDSNRPSGIPERFSGSNSGNTATLTISGTQAEDEADYYCGFDNGGDIDVFGGGTKLTVLG
IC50: reversal of PCSK9-dependent loss of cellular diI-LDL uptake (Exopolar assay), Fab titrated against a fixed 25 µg/ml PCSK9 [3]: 1.25 µM

B4: 3CX2A06 (Fab, V domains shown)
VH: QVQLVQSGAEVKKPGESLKISCKGSGYSFSNFWIAWVRQMPGKGLEWMGIIDPSDSWTRYSPSFQGQVTISADKSISTAYLQWSSLKASDTAMYYCARGDGQDFDNWGQGTLVTVSS
VL: DIQMTQSPSSLSASVGDRVTITCRASQNINSYLNWYQQKPGKAPKLLIYAASSLQSGVPSRFSGSGSGTDFTLTISSLQPEDFAVYYCLQNYDLPNTFGQGTKVEIKR
IC50: reversal of PCSK9-dependent loss of cellular diI-LDL uptake (Exopolar assay), Fab titrated against a fixed 25 µg/ml PCSK9 [4]: 0.107 µM

B5: 3CX3D02 (Fab, V domains shown)
VH: QVQLVQSGAEVKKPGESLKISCKGSGYSFTNSWIGWVRQMPGKGLEWMGIIYPSDSYTIYSPSFQGQVTISADKSISTAYLQWSSLKASDTAMYYCARGGGYYYALMDVWAQGTLVTVSS
VL: B4 VL with N28T, N30S, S31T, Y32W, V85T, N91D, Y92S, D93S, N96L
IC50: reversal of PCSK9-dependent loss of cellular diI-LDL uptake (Exopolar assay), Fab titrated against a fixed 25 µg/ml PCSK9 [5]: 0.269 µM
